In KR20190105077A:

Key:
Experiment in all cases: cell-based or functional assay
[1] = target: 인간 PD-1 (human PD-1) (human) (UniProt Q15116)
[2] = target: 배양된 세포에 의해 내인적으로 생성되는 TGF-β
[3] = target: 인간 TGF-β1 (human TGF-β1) (human) (UniProt P01137)
UniProt P01137, sequence (P01137 279-390 limits assumed): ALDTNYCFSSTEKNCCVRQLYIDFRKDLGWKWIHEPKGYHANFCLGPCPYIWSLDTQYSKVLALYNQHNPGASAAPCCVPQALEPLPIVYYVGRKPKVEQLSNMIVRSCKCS

UniProt Q15116, sequence (Q15116 25-288): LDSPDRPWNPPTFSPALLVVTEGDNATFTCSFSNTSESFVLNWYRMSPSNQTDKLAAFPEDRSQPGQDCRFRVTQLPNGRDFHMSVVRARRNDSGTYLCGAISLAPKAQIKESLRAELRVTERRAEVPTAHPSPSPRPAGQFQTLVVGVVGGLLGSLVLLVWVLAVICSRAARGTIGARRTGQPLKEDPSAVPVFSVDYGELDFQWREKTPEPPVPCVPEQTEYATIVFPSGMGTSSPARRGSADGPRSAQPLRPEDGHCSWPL

Substance	NFAT-루시퍼라제 상대 발광 단위, 인간 PD-1 발현 Jurkat T 세포와 인간 PD-L1 발현 CHO-K1 세포의 24시간 공동-배양 [1] [RLU]	루시퍼라제 활성의 배율 변화, 항-hPD-1 항체 대 이소형 대조군 (234963 RLU) [1]	루시퍼라제 활성의 배율 변화, 항-hPD-1 항체 대 항체 부재 (206043 RLU) [1]	iTreg(FOXP3+CD25+) 백분율, 자극된 인간 CD4+ T 세포, 항체 50 ㎍/㎖, 외인성 TGF-β 없음 (항체 없이 15%) [2] [%]	NFAT-루시퍼라제 상대 발광 단위, 18 ng/㎖ TGF-β1로 12일 사전-처리된 Jurkat T 세포, 항-PD-1 Ab 존재 하 CHO-K1 공동-배양 (Ab 부재: 638866) [3] [RLU]	iTreg(CD25+FOXP3+) 백분율, 자극된 인간 CD4+ T 세포 + 2 ng/㎖ 인간 TGF-β1, 항체 200 ㎍/㎖ 및 6.25 ㎍/㎖ (항체 없이 55%) [3] [%]
마우스 항-hPD-1 IgG (BioLegend Cat#329912) (antibody)	866000	3.69 배	4.2 배	–	–	–
항-HEL hIgG4 (인간 IgG4, 카파 항-계란 라이소자임 항체, Crown Bioscience) (antibody)	–	–	–	20	639000	60
